Columns and labels:
[1] = molecular target: UPP-G224L, recombinant (Arabidopsis thaliana); experiment: SEC
[2] = molecular target: Arabidopsis uracil phosphoribosyltransferase (UPP), wild type, recombinant (Arabidopsis thaliana); experiment: SEC

stoichiometry N [1]	stoichiometry N [2]	Substance
2	–	UPP-G224L, recombinant (enzyme)
–	4	Arabidopsis uracil phosphoribosyltransferase (UPP), wild type, recombinant (enzyme)

From publication doi:10.1101/2023.08.28.555145
